Test results from patent US20230381336A1 (SHANGHAI MIRACOGEN, published 2023).

T1: human Claudin 18.2 (human, UniProt P56856-2 1-261)
T1 sequence (looked up): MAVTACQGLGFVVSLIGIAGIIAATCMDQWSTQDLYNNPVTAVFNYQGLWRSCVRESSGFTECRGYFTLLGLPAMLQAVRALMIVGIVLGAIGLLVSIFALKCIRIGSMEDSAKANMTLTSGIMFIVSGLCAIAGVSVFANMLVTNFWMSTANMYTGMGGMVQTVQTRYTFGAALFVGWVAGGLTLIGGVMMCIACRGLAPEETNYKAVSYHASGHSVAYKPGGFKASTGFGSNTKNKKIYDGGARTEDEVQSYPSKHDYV

T2: human Claudin 18.1 (human, UniProt P56856 1-261)
T2 construct: whole, on cells; Splice variant used as specificity control
T2 sequence (looked up): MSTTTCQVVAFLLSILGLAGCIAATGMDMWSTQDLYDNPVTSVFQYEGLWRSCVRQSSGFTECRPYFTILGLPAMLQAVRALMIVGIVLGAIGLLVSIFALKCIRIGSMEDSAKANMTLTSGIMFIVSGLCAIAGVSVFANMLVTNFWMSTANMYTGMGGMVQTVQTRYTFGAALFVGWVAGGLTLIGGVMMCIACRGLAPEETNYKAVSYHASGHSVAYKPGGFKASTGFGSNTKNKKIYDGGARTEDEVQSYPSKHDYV


Columns and labels:
[1] = target: T1, human Claudin 18.2; test: cell-based or functional assay
[2] = target: T2, human Claudin 18.1; test: flow cytometry (iQue) on HEK293 cells stably expressing human Claudin 18.1
Method: The cells were gently tapped, and 50 μL of serially diluted antibodies were added to each well (antibody concentration starting from 100 nM, 5-fold dilution for 8 gradients), and incubated at 4° C. for 1 hour. After the incubation, 140μL of 0.5% BSA was added to each well to wash 3 times, and 30 μL/well of secondary antibody AlexaFluro647 anti-human IgG (Jackson ImmunoResearch, Cat: 109-606-170) was added, and incubated at 4° C. for 40 minutes. After the incubation, 140 μL of 0.5% BSA was added to each well to wash 3 times, and finally each well was resuspended in 50 μL of PBS for detection by flow cytometry (iQue Screener).

Row | Binder | Mean IC50 of cell killing, LT-1C8 cells (KATO stable cell line, medium Claudin 18.2 expression), 96 h, CCK-8 or Presto-Blue [1] [µg/mL] | Mean IC50 of cell killing, LT-M11 cells (KATO stable cell line, high Claudin 18.2 expression), 96 h, CCK-8 or Presto-Blue [1] [µg/mL] | Mean IC50 of cell killing, row without a cell line label printed under LT-M11 (taken as a second LT-M11 series) [1] [µg/mL] | binding result [2]
1 | CM311-18D10-VH3/VL2-ADC (other, MC-vc-PAB-MMAE coupled to free cysteine thiols of the DTT-reduced antibody; average DAR 3.5 per antibody; sites not stated) VH: QVQLQESGPGLVKPSETLSLTCTVSGGSISSNYAWNWIRQPPGKGLEWIGYINYSGNTNYNPSLKSRVTISRDTSKNQFSLKLSSVTAADTAVYYCATSYYGNSFIYWGQGTLVTVSS VL: not shown | 0.52 | 0.2 | 0.132 | –
2 | CM311-18D10-VH6/VL2-ADC (other, MC-vc-PAB-MMAE coupled to free cysteine thiols of the DTT-reduced antibody; average DAR 3.4 per antibody; sites not stated) VH: QVQLQESGPGLVKPSETLSLTCTVSGGSISSNYAWNWIRQPPGKGLEWIGYIYYSGNTNYNPSLKSRVTISRDTSKNQFSLKLSSVTAADTAVYYCATSYYGNSFIYWGQGTLVTVSS VL: not shown | 0.615 | 0.35 | 0.147 | –
3 | CM311-18A9-VH7/VL2-ADC (other, MC-vc-PAB-MMAE coupled to free cysteine thiols of the DTT-reduced antibody; average DAR 3.0 per antibody; sites not stated) VH: QVQLVQSGAEVKKPGASVKVSCKPSGYTFTNYLIDWVRQAPGQGLEWMGGINPGSGDTVYNEKFQGRVTLTADTSTSTVYMELSSLRSEDTAVYFCARRVRGNSFDSWGQGTLVTVSS VL: not shown | 0.111 | 0.155 | 0.0512 | –
4 | 18D10 chimera (antibody, V domains shown, also called Clone 18D10; 18D10 mVH / 18D10 mVL) VH: DVQLQESGPGLVKPSQSLSLTCTVTGYSITSNYAWNWIRQFPGNKLEWMGYINYSGNTNYNPSLKSRISITRDTSKNQFFLQLNSVTAEDTATYYCATSYYGNSFIYWGQGTLVTVSA VL: DIVMTQSPSSLTVTAGEKVTMSCKSSQSLLNSGNQKNYLTWYQQKPGQPPKLLIYWASTRESGVPDRFTGSGSGTDFTLTISSVQAEDLAVYYCQNAYSFPWTFGGGTKLEIK | – | – | – | no binding
5 | 18A9 chimera (antibody, V domains shown, also called Clone 18A9; 18A9 mVH / 18A9 mVL) VH: QVQLQQSGREVVRPGTSVKVSCKPSGYAFTNYLIDWVKQRPGQGLEWIGGINPGSGDTVYNEKFKAKATLTADKSSMTANMQLSSLTSDDSAVYFCARRVRGNSFDSWGQGTLVTVSA VL: DIVMSQSPSSLTVTAGEKVTMSCKSSQSLLNSGNQKNYLTWYQQKPGQPPKLLIYWASTRESGVPDRFTGSGSGKDFTLTISSVQAEDLALYYCQNNYFYPLTFGAGTKLELK | – | – | – | no binding
